Measured values published in publication PMC4863741 (Genes & Development, 2016).

Assays:
[1] = biological target: T1, GST-His-Sfmbt-SAM_(1137-1220) (Drosophila, UniProt Q9VK33 1137-1220); assay: pull-down
T1 sequence (looked up): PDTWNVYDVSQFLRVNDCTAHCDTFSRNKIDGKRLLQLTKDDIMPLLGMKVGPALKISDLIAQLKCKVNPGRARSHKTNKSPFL

Sfmbt-SAM_(1137-1220) = biological target: T2, Sfmbt-SAM_(1137-1220) (Drosophila, UniProt Q9VK33 1137-1220); assay: SEC
T2 sequence (looked up): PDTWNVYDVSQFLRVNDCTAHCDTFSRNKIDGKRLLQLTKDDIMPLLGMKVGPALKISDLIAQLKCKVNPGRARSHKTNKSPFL

| Binder | binding result [1] | binding result (Sfmbt-SAM_(1137-1220)) |
| --- | --- | --- |
| His-Scm-SAM_(803-877)^L855E/L859E (domain or fragment, Drosophila, UniProt Q9VHA0 803-877, looked up) PIDWTIEEVIQYIESNDNSLAVHGDLFRKHEIDGKALLLLNSEMMMKYMGLKEGPAEKICNLVNKVNGRRNNLAL | binds | – |
| Scm-SAM_(803-877)^L855E/L859E (coexpressed with Sfmbt-SAM) (domain or fragment, Drosophila, UniProt Q9VHA0 803-877, looked up) PIDWTIEEVIQYIESNDNSLAVHGDLFRKHEIDGKALLLLNSEMMMKYMGLKEGPAEKICNLVNKVNGRRNNLAL | – | binds |
